From patent CN115368464A (HEFEI TIANGANG IMMUNOLOGY PHARMACEUTICAL CO LTD, dated 2022)

Molecular target: T1, CD33蛋白 (SEQ ID NO:27) on CHO-K1-CD33 / A375-CD33 cells (Homo sapiens (Human), UniProt P20138 18-364)
T1 construct: also called CHO-K1-CD33细胞; A375-CD33细胞
Assay: flow cytometry on CHO-K1-CD33 cells, Alexa-647 anti-human Fc

T1 sequence (P20138 18-364 limits assumed): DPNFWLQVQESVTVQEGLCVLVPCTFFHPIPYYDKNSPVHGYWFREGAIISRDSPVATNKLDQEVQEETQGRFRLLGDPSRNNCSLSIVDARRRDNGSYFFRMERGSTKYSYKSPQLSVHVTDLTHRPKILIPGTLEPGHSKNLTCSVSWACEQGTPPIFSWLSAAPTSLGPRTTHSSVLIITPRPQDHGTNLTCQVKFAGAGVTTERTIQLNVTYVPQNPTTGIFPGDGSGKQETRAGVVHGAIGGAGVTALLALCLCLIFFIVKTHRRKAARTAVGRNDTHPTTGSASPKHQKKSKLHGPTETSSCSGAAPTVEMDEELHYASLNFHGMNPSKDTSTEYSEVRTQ

B1: CD3×CD33双特异性抗体 (bispecific antibody, human IgG1, kappa, L234A L235A)
chain: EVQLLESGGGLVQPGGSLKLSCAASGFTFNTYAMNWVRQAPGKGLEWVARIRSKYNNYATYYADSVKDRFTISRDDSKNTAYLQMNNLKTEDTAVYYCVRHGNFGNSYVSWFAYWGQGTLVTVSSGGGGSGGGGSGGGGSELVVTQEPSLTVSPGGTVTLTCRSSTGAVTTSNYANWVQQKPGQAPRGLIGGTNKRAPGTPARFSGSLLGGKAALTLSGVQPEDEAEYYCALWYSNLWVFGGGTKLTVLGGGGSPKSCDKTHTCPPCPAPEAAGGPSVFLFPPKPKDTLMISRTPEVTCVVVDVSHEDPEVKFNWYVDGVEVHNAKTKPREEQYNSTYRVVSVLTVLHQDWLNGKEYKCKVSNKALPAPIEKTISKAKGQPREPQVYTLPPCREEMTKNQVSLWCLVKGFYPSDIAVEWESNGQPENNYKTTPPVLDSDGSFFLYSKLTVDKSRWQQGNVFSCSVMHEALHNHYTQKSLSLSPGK
heavy: EVQLVQSGAEVKKPGSSVKVSCKASGYTITDSNIHWVRQAPGQSLEWIGYIYPYNGGTDYNQKFKNRATLTVDNPTNTAYMELSSLRSEDTAFYYCVNGNPWLAYWGQGTLVTVSSASTKGPSVFPLAPSSKSTSGGTAALGCLVKDYFPEPVTVSWNSGALTSGVHTFPAVLQSSGLYSLSSVVTVPSSSLGTQTYICNVNHKPSNTKVDKKVEPKSCDKTHTCPPCPAPEAAGGPSVFLFPPKPKDTLMISRTPEVTCVVVDVSHEDPEVKFNWYVDGVEVHNAKTKPREEQYNSTYRVVSVLTVLHQDWLNGKEYKCKVSNKALPAPIEKTISKAKGQPREPQVCTLPPSREEMTKNQVSLSCAVKGFYPSDIAVEWESNGQPENNYKTTPPVLDSDGSFFLVSKLTVDKSRWQQGNVFSCSVMHEALHNHYTQKSLSLSPGK
light: DIQLTQSPSTLSASVGDRVTITCRASESLDNYGIRFLTWFQQKPGKAPKLLMYAASNQGSGVPSRFSGSGSGTEFTLTISSLQPDDFATYYCQQTKEVPWSFGQGTKVEVKRTVAAPSVFIFPPSDEQLKSGTASVVCLLNNFYPREAKVQWKVDNALQSGNSQESVTEQDSKDSTYSLSSTLTLSKADYEKHKVYACEVTHQGLSSPVTKSFNRGEC
notes: Fc is human IgG1 with L234A/L235A; also called 抗体CD3×CD33; CD3×CD33双特异抗体
Q: Does B1 bind?
A: binds
